The source of these data is the RNAGym collection of RNA variant scans (doi:10.7554/elife.80360).

To fix the notation:
B1: Hairpin Ribozyme (parent)
chain: GUCCUCUUUCACGUGCGCGUGAAAGAGAGAAGUGAACCAGAGAAACACACGUUGUGGUAUAUUACCUGGUA

In this data set the parent is B1. Put plainly: self-cleavage, relative activity (ratio to wild type); higher = more cleavage; co-transcriptional.
For A47G C50G, the self-cleavage amounted to 0.105.

As to G42A C66U, the self-cleavage is 0.147.

Consider G25U A31U, for which the self-cleavage worked out at 0.166.

For the variant U7G A45C, the self-cleavage worked out at 0.0973.

With G1C U52A, the self-cleavage is 0.0569.

U5G A64U: the self-cleavage came out at 0.161.

Regarding U8A U14A, the self-cleavage is 0.642.

For A49U A71G, the self-cleavage came out at 0.221.

In the case of U20A G69C, the self-cleavage was 0.268.

Take A49C G56A: the self-cleavage was found to be 0.17.

Consider G13U C37U, for which the self-cleavage worked out at 0.443.

Turning to C12G A24G, the self-cleavage is 0.778.

C6A U60A: the self-cleavage was found to be 0.541.

Take G13A A24U: the self-cleavage is 0.627.

On to U2A C10U, for which the self-cleavage was 0.208.

A24G A71U: the self-cleavage stood at 0.667.

Consider G29A G32A, for which the self-cleavage was 0.181.

Consider C16G A71C, for which the self-cleavage came to 1.35.

For U9G C37G, the self-cleavage is 0.229.

G13U A41G: the self-cleavage stood at 0.752.

With G42U G54A, the self-cleavage was 0.197.

On to C4U G57A, for which the self-cleavage worked out at 0.155.

For G27U U58A, the self-cleavage was 0.153.

Consider G1U G25C, for which the self-cleavage stood at 0.0754.

Regarding U5G G56U, the self-cleavage is 0.125.

As for U2C G25A, the self-cleavage is 0.195.

For the variant U9A G19U, the self-cleavage stood at 0.558.

As to C65U G68A, the self-cleavage was found to be 0.249.

With U7C G68A, the self-cleavage was 0.339.

Turning to U7C G68U, the self-cleavage worked out at 0.171.

Take U5A A64U: the self-cleavage is 0.133.

For the variant U8A G40A, the self-cleavage stood at 0.235.

Turning to U53A A64G, the self-cleavage was 0.696.

Regarding A24C A30C, the self-cleavage is 0.242.

As to C18U G27C, the self-cleavage is 0.228.

Regarding U53G U55G, the self-cleavage was found to be 0.327.

On to U7A A49U, for which the self-cleavage is 0.16.

Take G42U A43C: the self-cleavage stood at 0.179.

A11U C50G: the self-cleavage amounted to 0.258.

For U9C U53C, the self-cleavage was 0.741.

Turning to U33G U55C, the self-cleavage came to 0.117.

As for C37A G69C, the self-cleavage is 0.467.

Turning to C37A G57U, the self-cleavage amounted to 0.142.

G32U A45C: the self-cleavage turned out to be 0.153.

For U5C A47C, the self-cleavage was found to be 0.208.

Regarding U8C U58G, the self-cleavage was 0.327.

On to G54A U67G, for which the self-cleavage is 0.157.

With A31C C66U, the self-cleavage worked out at 0.225.

As to U52C C66A, the self-cleavage worked out at 0.279.

For U20C A23G, the self-cleavage came to 1.

For the variant U14A G21C, the self-cleavage was determined as 0.467.

On to A28G U62A, for which the self-cleavage came out at 0.287.

Regarding C16A A41C, the self-cleavage worked out at 1.18.

Take G29C A44C: the self-cleavage turned out to be 0.126.

Turning to C37U G57C, the self-cleavage is 0.156.

As to A49U G51U, the self-cleavage amounted to 0.135.

Turning to G27A U55G, the self-cleavage was 0.144.

For C3U C38A, the self-cleavage came to 0.106.

On to A28U A44U, for which the self-cleavage was found to be 0.0894.

For G25U G40U, the self-cleavage was found to be 0.132.

For the variant C4U U52C, the self-cleavage stood at 0.481.

Regarding G1A U5G, the self-cleavage is 0.14.

Consider G42A A43C, for which the self-cleavage turned out to be 0.127.

In the case of A28G A31G, the self-cleavage turned out to be 0.416.

As to U7G U52G, the self-cleavage was found to be 0.779.

A61C G68U: the self-cleavage was determined as 0.278.

A24G G25C: the self-cleavage was 0.668.

Turning to C16A A36G, the self-cleavage is 1.1.

Turning to G51U U63C, the self-cleavage was found to be 0.136.

With C4A A59G, the self-cleavage worked out at 0.145.

For the variant U9G G40A, the self-cleavage was found to be 0.179.

Turning to A22U A43U, the self-cleavage was found to be 0.136.

For U9C A45G, the self-cleavage came to 0.0278.

Consider A22G C50G, for which the self-cleavage came to 0.42.

Take U7G G69C: the self-cleavage came to 0.191.

In the case of G21C A39G, the self-cleavage was determined as 0.225.

With U14G A43U, the self-cleavage stood at 0.186.

Consider U5C A61C, for which the self-cleavage was 0.128.

As to U20A C46U, the self-cleavage was 0.183.

In the case of U7A C16U, the self-cleavage was 0.85.

As to G54U C65U, the self-cleavage was 0.171.

Turning to U14C C37G, the self-cleavage was determined as 0.319.

With A11C U55C, the self-cleavage was determined as 0.183.

Consider A24U C50U, for which the self-cleavage was determined as 0.307.

With G42A U70C, the self-cleavage came out at 0.128.

As for G29C G56A, the self-cleavage is 0.0331.

In the case of A26G G56A, the self-cleavage is 0.271.

Regarding C18U C50U, the self-cleavage is 0.326.

As to C46U C65G, the self-cleavage was found to be 0.087.

As to U7C G27U, the self-cleavage came to 0.222.

For the variant A35G A49G, the self-cleavage worked out at 0.433.

Take A49G C50A: the self-cleavage came to 0.249.

For the variant G42A U58C, the self-cleavage was found to be 0.21.

As to A22C U60C, the self-cleavage was 1.16.

As for C10G A22C, the self-cleavage was determined as 0.597.

A31G U52A: the self-cleavage worked out at 0.764.

Turning to U14G U20C, the self-cleavage turned out to be 0.992.

In the case of C48A U63A, the self-cleavage came to 0.174.

On to U5G C37G, for which the self-cleavage stood at 0.125.

As for U14G C65U, the self-cleavage was 0.316.

Take G27A C46G: the self-cleavage came to 0.138.

In the case of G25A G29C, the self-cleavage came out at 0.118.

U5A U14C: the self-cleavage was 0.343.

On to C38G G57A, for which the self-cleavage came to 0.0627.

With A26U C65G, the self-cleavage is 0.111.

For the variant C50G G51A, the self-cleavage turned out to be 0.249.

Consider U14G U62C, for which the self-cleavage stood at 0.213.

As to G40A A41G, the self-cleavage amounted to 0.263.

With U8G G56A, the self-cleavage stood at 0.11.

Take A49C C65G: the self-cleavage is 0.168.

Regarding U7G A39G, the self-cleavage came to 0.377.

Turning to U20C G29C, the self-cleavage turned out to be 0.143.

With G32C U53G, the self-cleavage is 0.0828.

As to A39C U55C, the self-cleavage amounted to 0.188.

For the variant G13C A71U, the self-cleavage turned out to be 0.41.

As to C10A U14G, the self-cleavage turned out to be 0.632.

With C46G C65A, the self-cleavage turned out to be 0.174.

As for A35G U53A, the self-cleavage turned out to be 1.25.

Turning to U9C A30U, the self-cleavage was determined as 0.12.

As to U8C U70A, the self-cleavage worked out at 0.631.

Regarding C12U U53C, the self-cleavage amounted to 0.862.

On to C3G A31G, for which the self-cleavage came out at 0.0813.

Consider G27C C37U, for which the self-cleavage was determined as 0.0764.

In the case of C4U A30C, the self-cleavage is 0.104.

Regarding C10G A59C, the self-cleavage was 0.127.

With G1C U9C, the self-cleavage was 0.198.

Consider G32U G68C, for which the self-cleavage amounted to 0.0784.

In the case of G27C C50A, the self-cleavage came out at 0.242.

Regarding G1C C38A, the self-cleavage amounted to 0.281.

As for G42A G56C, the self-cleavage amounted to 0.105.

As to U20A G21C, the self-cleavage was determined as 0.691.

For G32A G34A, the self-cleavage is 0.07.

For the variant U9A G25U, the self-cleavage stood at 0.285.

In the case of G1A U14C, the self-cleavage turned out to be 0.166.

In the case of G56A A71U, the self-cleavage was 0.142.

As for U8A A64C, the self-cleavage stood at 0.181.

For the variant U9G U52A, the self-cleavage was determined as 0.705.

Consider C6U A11C, for which the self-cleavage was 0.411.

In the case of C3G G13U, the self-cleavage amounted to 0.259.

As for C18A U33G, the self-cleavage turned out to be 0.15.

For U62G C65U, the self-cleavage was found to be 0.0799.

For A43G C66G, the self-cleavage is 0.0518.

C12U A43G: the self-cleavage came out at 0.0708.

Take G29C U70G: the self-cleavage worked out at 0.119.

Regarding G15C C38G, the self-cleavage was 0.127.

As for G56U U67A, the self-cleavage turned out to be 0.23.

In the case of C37G U63A, the self-cleavage is 0.172.

Consider C37G U67A, for which the self-cleavage was 0.263.

Take U20C A28U: the self-cleavage is 0.393.

As to G21C A43C, the self-cleavage came out at 0.146.

Turning to U58C U63C, the self-cleavage came out at 0.178.

Regarding A39C G57U, the self-cleavage was determined as 0.16.

For C4G A26C, the self-cleavage worked out at 0.259.

On to G21C A35U, for which the self-cleavage came to 0.751.

In the case of C18G G29A, the self-cleavage worked out at 0.133.

For A11C A35U, the self-cleavage stood at 0.643.

A47U G51C: the self-cleavage amounted to 0.31.

Take G13C U52C: the self-cleavage stood at 0.646.

For the variant C12A C66U, the self-cleavage amounted to 0.418.

With C18G U60G, the self-cleavage was 0.483.

G1U A47G: the self-cleavage came to 0.046.

For C4U U33G, the self-cleavage turned out to be 0.0889.

As to G1A A39U, the self-cleavage was 0.154.

In the case of C18G A43U, the self-cleavage was determined as 0.0776.

In the case of G25C C37U, the self-cleavage was found to be 0.502.

Turning to A24U U33A, the self-cleavage amounted to 0.11.

As to G40A U52A, the self-cleavage amounted to 0.352.
